Test results as given in patent publication US20160152721A1 (Novartis, published 2016).
Values joined by “and” are separate entries in the source; they are usually repeats but may differ in a detail not shown here. Equal values may be shown once. Each block holds one binder with its values, some of them ahead of it.

How the values were obtained:
[1] = molecular target: T1, human CD40 on cells (BJAB B cell line, human PBMCs, CD20+ B cells, tonsil B cells, monocyte-derived dendritic … (human, UniProt P25942 21-277)); test: cell-based or functional assay
[2] = molecular target: T1, human CD40 on cells (BJAB B cell line, …); test: cell-based or functional assay; remark: listed apart in the source
[3] = molecular target: T1, human CD40 on cells (BJAB B cell line, …); test: cell-based or functional assay; remark: listed apart in the source
[4] = molecular target: human CD40 (Biacore antigen) (human, UniProt P25942 21-193, limits assumed); test: Biacore (SPR); format not described
[5] = molecular target: T1, human CD40 on cells (BJAB B cell line, …); test: flow cytometry on BJAB cells, normalized median fluorescence [left panel (Experiment 68_09]
Method: (§1) Flow cytometry was used, in order to compare the binding of the different anti-CD40 antibody Fc variants in their binding to human BJAB cells. Therefore, 2×10⁵ cells were seeded per well in a 96-well V-bottom plate. The plates were washed twice with 200 μL of FACS buffer (PBS, 5% FCS, 2 mM EDTA) for 2 min at 4° C. at 1350×g. Supernatants were discarded and cells were resuspended in […] FACS buffer containing 8% human serum (InVitromex, Cat. No. S4190) and incubated for 10 min. After two washes anti-human CD40 Fc variants were added in 50 μL FACS buffer with 1% human serum starting at a concentration of 10 μg/mL in a 1:2 dilution. Cells were incubated for 30 min on ice followed by two washing steps. 50 μL of polyclonal rabbit anti-human IgG FITC, F(ab′)2 (DAKO, Cat. No. F 0315) were added to each well and incubated for 30 min on ice. At the end of the incubation cells were washed twice, resuspended in 100 μL FACS buffer and acquired on a FACS Cantoll.
(§2) After acquisition the mean fluorescence intensity of the FITC channel was acquired in FloJo.Graphing and curve fitting was performed with GraphPad Prism 5.0. Due to changing intensities between individual experiments, values were normalized. Therefore, the highest value of each antibody test series was equaled 100%. Non-linear curve fittings were performed with the percent values.
(§3) To compare the curves of the different experiments, the highest median fluorescence intensity of each individual dose-titration was set to 100% binding and a non-linear curve fitting was applied. […] No changes in the binding capabilities of the variants could be observed with the different mutations of the Fc binding region of Chir12.12.

[6] = molecular target: T1, human CD40 on cells (BJAB B cell line, …); test: flow cytometry on BJAB cells, normalized median fluorescence [right panel (Experiment 72_09]
Method: as §1, §2, §3

[7] = molecular target: T1, human CD40 on cells (BJAB B cell line, …); test: cell-based or functional assay; remark: listed apart in the source
[8] = molecular target: T2, Rhesus CD40 on CD20+ B cells / PBMCs (Rhesus, UniProt F6SNI1 21-278); test: cell-based or functional assay
[9] = molecular target: T3, Cynomolgus CD40 on CD20+ B cells / PBMCs (Cynomolgus, UniProt G7PG38 21-278); test: cell-based or functional assay
[10] = molecular target: T1, human CD40 on cells (BJAB B cell line, …); test: cell-based or functional assay; remark: listed apart in the source
[11] = molecular target: T2, Rhesus CD40 on CD20+ B cells / PBMCs; test: cell-based or functional assay; remark: listed apart in the source
[12] = molecular target: T1, human CD40 on cells (BJAB B cell line, …); test: flow cytometry on human CD20+ B cells
Method: (§4) PBMCs (rhesus, cynomolgus or human) or tonsil B cells (human only) were incubated at 4° C. for 30 min with purified labeled mAb1 or isotype control antibodies in dose response (final concentration range 2.5 μg/ml-0.00125 μg/ml). Cells were subsequently washed prior to being incubated with an anti-human (non-human primate cross-reactive) and a biotinylated anti-human IgG antibody with minimal cross-reactivity to NHPs (R10; note that it was possible to distinguish membrane IgG expressing human B cells either by including an anti-IgM stain or via differential intensity of FACS staining). Cells were again incubated at 4° C. for 30 min prior to being washed and subject to final staining with streptavidin-FITC for 20 min at 4° C. Cells were subsequently washed and evaluation of CD40 expression on CD20+ cells was performed by flow cytometry.

[13] = molecular target: T3, Cynomolgus CD40 on CD20+ B cells / PBMCs; test: flow cytometry on Cynomolgus CD20+ B cells
Method: as §4

[14] = molecular target: T2, Rhesus CD40 on CD20+ B cells / PBMCs; test: flow cytometry on Rhesus CD20+ B cells (n = 6)
Method: as §4

T3 sequence (G7PG38 entry or part of it limits assumed): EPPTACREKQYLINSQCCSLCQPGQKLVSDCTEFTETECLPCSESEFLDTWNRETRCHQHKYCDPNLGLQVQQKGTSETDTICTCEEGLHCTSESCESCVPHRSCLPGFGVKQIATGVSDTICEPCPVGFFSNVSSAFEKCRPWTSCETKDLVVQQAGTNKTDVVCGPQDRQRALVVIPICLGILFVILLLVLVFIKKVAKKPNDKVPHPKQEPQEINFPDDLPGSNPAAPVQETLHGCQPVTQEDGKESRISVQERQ
T2 sequence (F6SNI1 entry or part of it limits assumed): as the sequence (G7PG38 entry or part of it limits assumed) above, with Q70R, T92M, V207A, P220L counted along it
T1 sequence (P25942 21-277 limits assumed): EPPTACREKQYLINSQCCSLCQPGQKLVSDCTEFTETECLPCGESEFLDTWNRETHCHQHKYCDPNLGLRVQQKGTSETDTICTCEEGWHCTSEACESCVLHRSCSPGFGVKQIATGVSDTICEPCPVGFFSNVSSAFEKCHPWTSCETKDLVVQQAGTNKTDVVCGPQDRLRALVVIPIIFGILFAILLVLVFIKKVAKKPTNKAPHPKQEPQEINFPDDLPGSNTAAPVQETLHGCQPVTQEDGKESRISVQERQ
Sequence of human CD40 (Biacore antigen) (P25942 21-193 limits assumed): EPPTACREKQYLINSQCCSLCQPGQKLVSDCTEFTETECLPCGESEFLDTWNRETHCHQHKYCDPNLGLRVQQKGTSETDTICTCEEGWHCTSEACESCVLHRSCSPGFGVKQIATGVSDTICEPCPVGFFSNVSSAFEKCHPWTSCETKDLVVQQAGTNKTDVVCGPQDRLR

IC50 for inhibition of CD40L-mediated proliferation of PBMCs [1]: 0.176 µg/mL
IC50 for the inhibition of TNF alpha release from human MoDCs stimulated with MegaCD40L, average [2]: 0.036 µg/mL
IC50 for the inhibition of TNF alpha release from human MoDCs stimulated with MegaCD40L, experiment #2 [2]: 0.041 µg/mL
IC50 for the inhibition of TNF alpha release from human MoDCs stimulated with MegaCD40L, experiment #3 [2]: 0.03 µg/mL
Agonist activity on huPBMCs (EC50, ng/ml) [3]: > 10000 ng/mL
CD40L inhibition - huPBMCs (IC50, ng/ml) [3]: 13 ng/mL
Kd [4]: 0.55 nM
EC50 (read off the curve) [5]: ~0.1 µg/mL
EC50 (read off the curve) [6]: ~0.3 µg/mL
B1: Chir12.12 (antibody, human IgG1, kappa)
heavy: not shown
light: DIVMTQSPLSLTVTPGEPASISCRSSQSLLYSNGYNYLDWYLQKPGQSPQVLISLGSNRASGVPDRFSGSGSGTDFTLKISRVEAEDVGVYYCMQARQTPFTFGPGTKVDIRRTVAAPSVFIFPPSDEQLKSGTASVVCLLNNFYPREAKVQWKVDNALQSGNSQESVTEQDSKDSTYSLSSTLTLSKADYEKHKVYACEVTHQGLSSPVTKSFNRGEC
notes: also called Chir12.12 (wt Fc); parental anti-CD40 antibody

IC50 for inhibition of CD40L-mediated proliferation of PBMCs [1]: 0.058 µg/mL
IC50 for the inhibition of TNF alpha release from human MoDCs stimulated with MegaCD40L, average [2]: 0.04 µg/mL
IC50 for the inhibition of TNF alpha release from human MoDCs stimulated with MegaCD40L, experiment #1 [2]: 0.023 µg/mL
IC50 for the inhibition of TNF alpha release from human MoDCs stimulated with MegaCD40L, experiment #2 [2]: 0.044 µg/mL
IC50 for the inhibition of TNF alpha release from human MoDCs stimulated with MegaCD40L, experiment #3 [2]: 0.058 µg/mL
Agonist activity on huPBMCs (EC50, ng/ml) [3]: > 10000 ng/mL
CD40L inhibition - huPBMCs (IC50, ng/ml) [3]: 15 ng/mL
CD154 inhibition (IC50, µg/ml), CD154+IL-4 induced proliferation of human tonsil B cells [7]: 0.058 µg/mL and 0.075 µg/mL
CD154 inhibition (IC50, µg/ml), CD154+IL-4 induced proliferation of Rhesus PBMCs (n = 6) [8]: 0.03 µg/mL
CD154 inhibition (IC50, µg/ml), CD154+IL-4 induced proliferation of Cynomolgus PBMCs [9]: 0.015 µg/mL and 0.02 µg/mL
IC50 in the functional inhibition test (soluble CD154 + IL4-induced proliferation, human tonsil B cells) [10]: 0.067 µg/mL
IC50 in the functional inhibition test (soluble CD154 + IL4-induced proliferation, rhesus PBMCs) [11]: 0.0255 µg/mL
Kd [4]: 0.69 nM
EC50 [12]: 0.26 µg/mL and 0.28 µg/mL
EC50 [13]: 0.3 µg/mL and 0.24 µg/mL
EC50 [14]: 0.22 µg/mL
EC50 (read off the curve) [5]: ~0.3 µg/mL
EC50 (read off the curve) [6]: ~0.5 µg/mL
B2: mAb1 (antibody, human IgG1, kappa, N297A)
heavy: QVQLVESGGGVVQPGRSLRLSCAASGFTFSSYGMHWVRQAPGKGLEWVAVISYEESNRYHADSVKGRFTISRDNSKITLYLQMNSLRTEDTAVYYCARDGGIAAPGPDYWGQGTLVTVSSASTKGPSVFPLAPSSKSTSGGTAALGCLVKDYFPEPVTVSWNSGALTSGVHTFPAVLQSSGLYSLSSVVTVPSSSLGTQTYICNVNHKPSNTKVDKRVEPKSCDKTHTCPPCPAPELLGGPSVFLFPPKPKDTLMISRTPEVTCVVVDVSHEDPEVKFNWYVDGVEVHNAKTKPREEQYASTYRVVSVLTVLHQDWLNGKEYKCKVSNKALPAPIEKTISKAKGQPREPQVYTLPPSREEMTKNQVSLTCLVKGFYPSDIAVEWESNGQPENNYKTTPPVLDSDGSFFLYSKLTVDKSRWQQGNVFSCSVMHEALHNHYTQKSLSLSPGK
light: B1 light
notes: Fc-silent IgG1 variant of Chir12.12 with N297A (aglycosylated); same VH/VL as Chir12.12; also called mAb1 (N297A)

IC50 for inhibition of CD40L-mediated proliferation of PBMCs [1]: 0.118 µg/mL
IC50 for the inhibition of TNF alpha release from human MoDCs stimulated with MegaCD40L, average [2]: 0.032 µg/mL
IC50 for the inhibition of TNF alpha release from human MoDCs stimulated with MegaCD40L, experiment #1 [2]: 0.039 µg/mL
IC50 for the inhibition of TNF alpha release from human MoDCs stimulated with MegaCD40L, experiment #2 [2]: 0.008 µg/mL
IC50 for the inhibition of TNF alpha release from human MoDCs stimulated with MegaCD40L, experiment #3 [2]: 0.047 µg/mL
Agonist activity on huPBMCs (EC50, ng/ml) [3]: > 10000 ng/mL
CD40L inhibition - huPBMCs (IC50, ng/ml) [3]: 15 ng/mL
Kd [4]: 0.33 nM
EC50 (read off the curve) [5]: ~0.1 µg/mL
EC50 (read off the curve) [6]: ~0.2 µg/mL
B3: mAb3 (antibody, human IgG1, kappa, L234A L235A)
heavy: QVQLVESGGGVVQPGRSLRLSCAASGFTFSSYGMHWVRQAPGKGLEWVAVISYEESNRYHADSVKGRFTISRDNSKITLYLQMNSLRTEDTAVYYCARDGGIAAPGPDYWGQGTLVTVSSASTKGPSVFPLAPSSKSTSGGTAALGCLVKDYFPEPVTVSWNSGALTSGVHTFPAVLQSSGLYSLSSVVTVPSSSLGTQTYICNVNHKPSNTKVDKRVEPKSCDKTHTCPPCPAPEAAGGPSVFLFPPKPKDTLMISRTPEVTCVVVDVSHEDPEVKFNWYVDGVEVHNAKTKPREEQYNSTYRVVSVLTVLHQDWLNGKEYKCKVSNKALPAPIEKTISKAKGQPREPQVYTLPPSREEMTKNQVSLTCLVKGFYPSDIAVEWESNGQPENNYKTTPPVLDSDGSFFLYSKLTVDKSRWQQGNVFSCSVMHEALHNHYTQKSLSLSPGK
light: B1 light
notes: IgG1 variant of Chir12.12 with L234A/L235A; same VH/VL as Chir12.12; also called mAb3 (LALA); LALA mutant

IC50 for inhibition of CD40L-mediated proliferation of PBMCs [1]: 0.146 µg/mL
IC50 for the inhibition of TNF alpha release from human MoDCs stimulated with MegaCD40L, average [2]: 0.033 µg/mL
IC50 for the inhibition of TNF alpha release from human MoDCs stimulated with MegaCD40L, experiment #1 [2]: 0.041 µg/mL
IC50 for the inhibition of TNF alpha release from human MoDCs stimulated with MegaCD40L, experiment #2 [2]: 0.012 µg/mL
IC50 for the inhibition of TNF alpha release from human MoDCs stimulated with MegaCD40L, experiment #3 [2]: 0.042 µg/mL
Agonist activity on huPBMCs (EC50, ng/ml) [3]: > 10000 ng/mL
CD40L inhibition - huPBMCs (IC50, ng/ml) [3]: 17 ng/mL
Kd [4]: 0.49 nM
B4: mAb2 (antibody, human IgG1, kappa)
heavy: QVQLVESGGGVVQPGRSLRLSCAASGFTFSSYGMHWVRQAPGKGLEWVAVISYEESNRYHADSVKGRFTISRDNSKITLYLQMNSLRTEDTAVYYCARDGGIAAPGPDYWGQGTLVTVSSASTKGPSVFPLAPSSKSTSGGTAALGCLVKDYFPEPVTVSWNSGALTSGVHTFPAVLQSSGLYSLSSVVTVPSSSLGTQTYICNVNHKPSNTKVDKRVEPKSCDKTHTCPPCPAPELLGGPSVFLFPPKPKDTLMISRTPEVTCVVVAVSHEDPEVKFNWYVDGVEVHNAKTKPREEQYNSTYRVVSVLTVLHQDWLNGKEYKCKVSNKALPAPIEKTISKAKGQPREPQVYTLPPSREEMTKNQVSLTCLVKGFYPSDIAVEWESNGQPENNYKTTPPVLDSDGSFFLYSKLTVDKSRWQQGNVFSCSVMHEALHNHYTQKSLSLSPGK
light: B1 light
notes: Fc-silent IgG1 variant of Chir12.12 with D265A; same VH/VL as Chir12.12; also called mAb2 (D265A)
